The DeepSol protein solubility set

Experiment: soluble on expression in E. coli; label from the status in PepcDB or PDB records

Sequence	soluble on expression in E. coli
RAIFKISVAKEKEKMDSLEHNDDNQAIALSLVVKNPAVFSKTLAEVRQLLKGHDYVISRTMDSRTNSISLAHSDTVLNENDRVFVITNPQNTAVISSFIGTEVQMDRKQWIPTESHLVSRRFIVTKSELNGKTLGSLQLRKMHGMNVTRVNRAGVEMVALASLPLQVGDRLTVVGSELVMPKVEELIGNSVKRLNEPN	soluble
RDTCVTLLLDNSGSMRGRPISIAAICADVLARTLERCQVKVEILGFTTRAWKGGQSREKWLAAGRPQQPGRLNDLRHIVYKGADAPWRRARENLGLMMKEGLLKENIDGEALEWAHRRLSSRAETRKILMVISDGAPVDDSTLSVNPASYLEKHLRDVIAMVERKRQVELIAIGIGHDVTRYYARAVTITDVEQLAGAMTEQLASLFDADPKKRIGKRRVA	not soluble
RERVKKEIKDLEKAKDFTEELIEKVKKYKALAREAALSKIGELASEIFAEFTEGKYSEVVVRAEENKVRLFVVWEGKERPLTFLSGGERIALGLAFRLAMSLYLAGEISLLILDEPTPYLDEERRRKLITIMERYLKKIPQVILVSHDEELKDAADHVIRISLENGSSKVEVVS	soluble
RGKVFLEAQEKYEVNVIYLVSHALVETGNGKSELAKGIKDGKKRYYNFFGIGAFDSSAVRSGKSYAEKEQWTSPDKAIIGGAKFIRNEYFENNQLNLYQMRWNPENPAQHQYASDIRWADKIAKLMDKSYKQFGIKKDDIRQTYYK	not soluble
RKRNRIPLRCTICRKRKVKCDKLRPHCQQCTKTGVAHLCHYMEQTWAEEAEKELLKDNELKKLRERVKSLEKTLSKVHSSP	soluble
RKRRRGYDVDEQGKIVRGKGTVSSNYDNYVFDIWKQYYPQPVEIKHDHVLDHYDIHEELGTGAFGVVHRVTERATGNNFAAKFVMTPHESDKETVRKEIQTMSVLRHPTLVNLHDAFEDDNEMVMIYEFMSGGELFEKVADEHNKMSEDEAVEYMRQVCKGLCHMHENNYVHLDLKPENIMFTTKRSNELKLIDFGLTAHLDPKQSVKVTTGTAEFAAPEVAEGKPVGYYTDMWSVGVLSYILLSGLSPFGGENDDETLRNVKSCDWNMDDSAFSGISEDGKDFIRKLLLADPNTRMTIHQALEHPWLTPGNAPGRDSQIPSSRYTKIRDSIKTKYDAWPEPLPPLGRISNYSSLRKHRPQEYSIRDAFWDRSEAQPRFIVKPYGTEVGEGQSANFYCRVIASSPPVVTWHKDDRELKQSVKYMKRYNGNDYGLTINRVKGDDKGEYTVRAKNSYGTKEEIVFLNVTRHSEPLKFEPLEPMKKAPSPPRVE	soluble
RLSEIFNSPEFAESKSKLTLALGQDITGQPVVTDLGKAPHLLVAGTTGSGKSVGVNAMILSMLFKAAPEDVRMIMIDPKMLELSIYEGIPHLLAPVVTDMKLAANALNWCVNEMEKRYRLMSFMGVRNLAGFNQKIAEAAARGEKIGNPFSLTPDDPEPLEKLPFIVVVVDEFADLMMTAGKKIEELIARLAQKARAAGIHLILATQRPSV	not soluble
RNRFTRRKIVYIHEGMNVPLLGYNAFGLIDRGTNLIQVRGSTGCNLSCIFCSVDEGPYSRTRNLDFVVDVDYLMKWFDWVAKEKGKGLEAHLDAQGEPLLYPYIVELVQELRSHPHVSVISMQSNGVLLDEKLVEELAEAGLDRVNLSIHSLDPEKAKMLMGMKNYDLNHVLEMAEALVNAGIDVLIAPVIIFGINDNEAEAFIEFARRIGAGKRWPALGFQNYVPYKFGRNPVIAKPVPFKEFYEWLRMLEEKTGMRPLVLKPHHFGMHPRPFIPLAFKR	not soluble
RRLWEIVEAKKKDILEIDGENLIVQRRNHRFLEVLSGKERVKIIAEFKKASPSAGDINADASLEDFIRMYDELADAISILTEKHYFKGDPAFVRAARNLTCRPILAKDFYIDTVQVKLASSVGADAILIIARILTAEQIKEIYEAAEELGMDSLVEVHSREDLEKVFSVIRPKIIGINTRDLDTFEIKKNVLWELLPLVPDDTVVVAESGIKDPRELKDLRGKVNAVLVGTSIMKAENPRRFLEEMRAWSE	soluble
RSYGPVFEEQPAHTLFPEGSAEEKVTLTCRARANPPATYRWKMNGTELKMGPDSRYRLVAGDLVISNPVKAKDAGSYQCVATNARGTVVSREASLRFGFLQEFSAEERDPVKITEGWGVMFTCSPPPHYPALSYRWLLNEFPNFIPADGRRFVSQTTGNLYIAKTEASDLGNYSCFATSHIDFITKSVFSKFSQLSLAAEDARQYAPSIKAKFPADTYALTGQMVTLECFAFGNPVPQIKWRKLDGSQTSKWLSSEPLLHIQNVDFEDEGTYECEAENIKGRDTYQGRIIIHAQPDWLDVITDTEADIGSDLRWSCVASGKPRPAVRWLRDGQPLASQNRIEVSGGELRFSKLVLEDSGMYQCVAENKHGTVYASAELTVQA	soluble
RVDADNTALVDLWERSVRATHDFLSEADIVELYPQVRDLYLPAVEVWVLVDDDGVAQGFIGLNQAHVEMLFVEPGLRGRGIGRRLLDHARATWPRLSVDVNEQNPQACGFYRHYGFRQTGRSATDSAGRPFPLLHMSL	not soluble
RVLEDLGWYVAHNIPPQIILELIDMCAREDSPVDKVAVVCDVRSREFRGSLTQVVSELRDKQLDPTVLFLEARDEVLIKRFDNVRRTHPLQGSQTLQVGIERERTVLSPVKEDASVVIDTSDLSVHDLRRAIESSFRTIATRTQHVTIESFGFKHGSPRDADFVVDVRFLPNPFWVPELRPFRGVDKPVSDYVLSQKGAEEFLNNFVDMLKDMLPGYRHEGKNFITIGVGCTGGHHRSVAVSEELAKRIADQTTLDVSVVHRDINRH	not soluble
RVLNLEEGPDAFGDYAREKLFVRARFAARQVLDSYSHDIPEEFMASLRRRFEHDINADEDDDDAMTPEERRKIQERRFALFNKVRLEALYASQAELLRARSERDVDPMIVDEVLFEIDSQIIAAEKSTR	not soluble
SADISLDELIRKRGAAAKGRLNARPGVGGVRSRVGIQQGLLSQSTRTATFQQRFDARQKIGLSDARLKLGVKDAREKLLQKDARFRIKGKVQDAREMLNSRKQQTTVPQKPRQVADAREKISLKRSSPAAFINPPIGTVTPALKLTKTIQNLYDLDEDDDGIASVPTKQMKFAASGGFLHHMAGLSSSKLSMSKALPLTKVVQNDAYTAPALPSSIRTKALPVLTSPGT	soluble
SAEAGTGEPSPSVEGEHGTEYDTLPSDTVSLSDSDSDLSLPGGAEVEALSPMGLPGEEDSGPDEPPSPPSGLLPATVQPFHLRGMSSTFSQRSRDIFDCLEGAARRAPSSVAHTSMSDNGGFKRPLAPSGRSPVEGLGRAHRSPASPRVPPVPDYVAHPERWTKYSLEDVTEVSEQSNQATALAFLGSQSLAAPTDCVSSFNQDPSSCGEGRVIFTKPVRGVEARHERKRVLGKVGEPGRGGLGNPATDRGEGPVELAHLAGPGSPEAEEWGSPHGGLQEVEALSGSVHSGSVPGLPPVETVGFHGSRKRSRDHFRNKSSSPEDPGAEV	soluble
SAEEPEPDLGVAEGSEDQALEMPSWKAPEDIDPQPGSYEIRHYGPAKWVSTCVESLDWDSAIQTGFTKLNGYIQGKNEKEMKIKLTAPVTSYVEPGSSPFSLLMDSPVAKRIKNNF	soluble
SAENREPRCAIEAELDPVEYTLRKRLPHRLPRRPNDIYVNMKTDFKAQLARCQKLLDGGTRGQNACTEIYIHGLGLAINRAINIALQLQAGSFGSLQVAANTSTVELVDELEPETDSREPLTRVRNNSAIHIRVFRVTPK	soluble
SAILALFFHMYSHNISSLSMKAQPERMHVLVLSSWRSGSSFVGQLFGQHPDVFYLMEPAWHVWMTFKQSTAWMLHMAVRDLIRAVFLCDMSVFDAYMEPGPRRQSSLFQWENSRALCSAPACDIIPQDEIIPRAHCRLLCSQQPFEVVEKACRSYSHVVLKEVRFFNLQSLYPLLKDPSLNLHIVHLVRDPRAVFRSRERTKGDLMIDSRIVMGQHEQKLKKEDQPYYVMQVICQSQLEIYKTIQSLPKALQERYLLVRYEDLARAPVAQTSRMYEFVGLEFLPHLQTWVHNITRGKGMGDHAFHTNARDALNVSQAWRWSLPYEKVSRLQKACGDAMNLLGYRHVRSEQEQRNLLLDLLSTWTVPEQIH	not soluble
SALAVEADPAADRVSSLSNVSGVLGSQWGDEGKGKLVDVLAPRFDIVARCQGGANAGHTIYNSEGKKFALHLVPSGILHEGTLCVVGNGAVIHVPGFFGEIDGLQSNGVSCDGRILVSDRAHLLFDLHQTVDGLREAELANSFIGTTKRGIGPCYSSKVTRNGLRVCDLRHMDTFGDKLDVLFEDAAARFEGFKYSKGMLKEEVERYKKFAERLEPFIADTVHVLNESIRQKKKILVEGGQATMLDIDFGTYPFVTSSSPSAGGICTGLGIAPRVIGDLIGVVKAYTTRVGSGPFPTELLGEEGDVLRKAGMEFGTTTGRPRRCGWLDIVALKYCCDINGFSSLNLTKLDVLSGLPEIKLGVSYNQMDGEKLQSFPGDLDTLEQVQVNYEVLPGWDSDISSVRSYSELPQAARRYVERIEELAGVPVHYIGVGPGRDALIYK	soluble
SARIILERFLQGHEQTPPSKSVINSMLRDPSQIPDGVLANQVYQCIVNDCCYGPLVDCIKHAIGYEHEVLLRDLLLKKNLSFLDEDQLRAKGYDKTPDFILQVPVAVEGHIIHWIESKASFGDECSHHAYLHGQFWSYWNRFGPGLVIYWYGFIQELDCNRERGILLKASFPTDIVTLCHSTA	soluble
SASEVEEQIPVREEFFLCGGVETKIIKCGPWTNLFEKQDVSKPKQLIFIIPGNPGYSAFYVPFAKALYTLMKSRFPVWIISHAGFSVTPKDKKVLAAPQEESNAQKIEDVYGLNGQIEHKIAFLRAHVPKDVKLILIGHSVGTYMTLHVMKRVPELPVAHAFLLFPTIERMSESPNGKFATPFLCQFRYLLYATSYLLFKPCPEVIKSFIIQKLMGQMNIKLELPLTDILQPFCLA	soluble
SASFQRKGLQARILSTEEEEKLKRDQALVSAFKQQKLEKEAQKNWDLFYKRNSTNFFKDRHWTTREFEELRSCREYEGQKLTLLEAGCGVGNCLFPLLEEDLNLFAYACDFSPRAVDYVKQHPLYNAERCKVFQCDLTRDDLLDHVPPESVDAVTLIFVLSAVHPEKMRLVLLNVYKVLKPGRSVLFRDYGLNDHAMLRFKAGSKLGENFYVRQDGTRSYFFTDEFLAQLFVDAGYEEVVNEYVFRETVNKKEGLCVPRVFLQSKFRKPPKDPAPTSDSASL	soluble
SATSVLCCLRCCRDGGTGHIPLKEMPAVQLDTQHMGIWGIGVATQKVNLNQIPLGRDMHSLVMRNDGALYHNNEEKNRLPANSLPQEGDVVGITYDHVELNVYLNGKNMHCPASGIRGTVYPVVYDDDSAILDCQFSEFYHTPPPGFEKILFEQQIF	soluble
SCSTSGCDLEEIPLDDDDLNTIEFKILAYYTRHHVFKSTPALFSPKLLRTRSLSQRGLGNCSANESWTEVSWPCRNSQSSEKAINLGKKKSSWKAFFGVVEKEDSQSTPAKVSAQGQRTLEYQDSHSQQWSRCLSNVEQCLEHEAVDPKVISIANRVAEIVYSWPPPQATQAGGFKSKEIFVTEGLSFQLQGHVPVASSSKKDEEEQILAKIVELLKYSGDQLERKLKKDKALMGHFQDGLSYSVFKTITDQVLMGVDPRGESEVKAQGFKAALVIDVTAKLTAIDNHPMNRVLGFGTKYLKENFSPWIQQHGGWEKILGISHEEVD	soluble
SDITLESLRHIIAQVLPHRDPALVFKDLNVVSMLQEFWESKQQQKAAFPSEGVVVYESLPAPGPPFVSYVTLPGGSCFGNFQCCLSRAEARRDAAKVALINSLFNELPSRRITKEFIMESVQEAVASTSGTLDDADDPSTSVGAYHYMLESNMGKTMLEFQELMTIFQLLHWNGSLKALRETKCSRQEVISYYSQYSLDEKMRSHMALDWIMKERDSPGIVSQELRMALRQLEEARKAGQELRFYKEKKEILSLALTQICSDPDTSSPSDDQLSLTALCGYH	soluble
